Paper PMC2858980

Columns and labels:
IL-8(1–66) monomer = test: NMR titration
[1] = target: IL-8(1–72) R26C trapped dimer; test: NMR titration

## LWTWFEDEFANATGMPPVEKDYSP [CXCR1 N-domain 24-mer]
IL-8(1–66) monomer
  Kd: 10 µM
[1]
  Kd: 340 µM
